In data set [1] the target is Thermococcus kodakarensis proliferating cell nuclear antigen PCNA1 (TkoPCNA), homotrimer (UniProt Q5JF32). Put plainly: SPR. The following applies: PCNA immobilized on a sensor chip, PolD at 500 nM, read off a plot.
Data set [2] concerns the molecule itself. Put plainly: cryo-EM structure; PolD-PCNA-primed DNA complex reconstituted from purified proteins without Mg2+ and isolated by gel filtration; Form A with DNA (25/35) at 6.9 Å, Form A and Form B with DNA (30/45); crystal structures and homology models fitted. Background: Size exclusion chromatography separates by hydrodynamic size, large species first.
For data set [3], the target named is T1, PolDΔPIP: PolD with DP2(Δ1314-1324) (Thermococcus kodakarensis). Put plainly: SPR. On the technique in general: SPR reads the build-up and loss of mass on a sensor chip optically.
In data set [4] the target is T2, PolDΔKR: PolD with DP1(K326A K328A) and DP2(K432A R434A R781A) (Thermococcus kodakarensis, DP1 residue 328 is Ala (wild type printed as both K328 and R328, so the Ala is spliced in; the mutagenic primer encodes Ala-Val-Ala at 326-328). DP2 is the mature intein-free form (1324 aa). Zn bound …). Put plainly: SPR.
Data set [5] has as its target T3, PolDΔPIPΔKR: PolD with DP1(K326A K328A) and DP2(K432A R434A R781A, Δ1314-1324) (Thermococcus kodakarensis, UniProt Q5JET0 1-1313, K432A | R434A | R781A, DP1 residue 328 is Ala (wild type printed as both K328 and R328, so the Ala is spliced in). DP2 is the mature intein-free form, residues 1-1313 (PIP box 1314-1324 deleted; mature 1313 = precursor …). The data set is described as follows: SPR.

Data set [6] concerns the target T4, Thermococcus kodakarensis DNA polymerase D (PolD), wild type, DP1-DP2 heterodimer (Thermococcus kodakarensis). The data set is described as follows: SPR.
For data set [7], the target named is T1, PolDΔPIP: PolD with DP2(Δ1314-1324). The data set is described as follows: SPR. The source holds these as a separate data set.
Data set [8] concerns the target T2, PolDΔKR: PolD with DP1(K326A K328A) and …. Put plainly: SPR. The source holds these as a separate data set.
The target of data set [9] is T3, PolDΔPIPΔKR: PolD with DP1(K326A K328A) …. The data set is described as follows: SPR. This is another data set of the same source.
Data set [10] addresses T4, Thermococcus kodakarensis DNA …. The data set is described as follows: SPR. This is another data set of the same source.
For data set [11], the target named is DP1 (PolD small subunit);DP2 (PolD large subunit);TkoPCNA (PCNA1) (Thermococcus kodakarensis;Thermococcus …, UniProt Q5JET1;Q5JET0;Q5JET0;Q5JF32 1-735;1-963;1438-1798;1-249, ||). Put plainly: gel filtration; 50 mM NaCl elution; EMSA: 20 mM Tris-HCl pH 8.0, 10 mM KCl, 10 mM (NH4)2SO4, 1 mM DTT, 0.1 mg/ml BSA, 2 mM MgCl2, 40 C 10 min, 0.8% agarose 0.1x TAE; EM complex: 50 mM Tris-HCl pH. The following applies: protein: recombinant;recombinant;recombinant; tags: ;;; copies: 1;1;1;3; primer-template, 5' overhang 15 nt on template.

The target in data set [12] is T5, DP1 (PolD small subunit);DP2CTD (Thermococcus kodakarensis;Thermococcus …, UniProt Q5JET1;Q5JET0 1-735;1474-1798, |).
T5 sequence 1: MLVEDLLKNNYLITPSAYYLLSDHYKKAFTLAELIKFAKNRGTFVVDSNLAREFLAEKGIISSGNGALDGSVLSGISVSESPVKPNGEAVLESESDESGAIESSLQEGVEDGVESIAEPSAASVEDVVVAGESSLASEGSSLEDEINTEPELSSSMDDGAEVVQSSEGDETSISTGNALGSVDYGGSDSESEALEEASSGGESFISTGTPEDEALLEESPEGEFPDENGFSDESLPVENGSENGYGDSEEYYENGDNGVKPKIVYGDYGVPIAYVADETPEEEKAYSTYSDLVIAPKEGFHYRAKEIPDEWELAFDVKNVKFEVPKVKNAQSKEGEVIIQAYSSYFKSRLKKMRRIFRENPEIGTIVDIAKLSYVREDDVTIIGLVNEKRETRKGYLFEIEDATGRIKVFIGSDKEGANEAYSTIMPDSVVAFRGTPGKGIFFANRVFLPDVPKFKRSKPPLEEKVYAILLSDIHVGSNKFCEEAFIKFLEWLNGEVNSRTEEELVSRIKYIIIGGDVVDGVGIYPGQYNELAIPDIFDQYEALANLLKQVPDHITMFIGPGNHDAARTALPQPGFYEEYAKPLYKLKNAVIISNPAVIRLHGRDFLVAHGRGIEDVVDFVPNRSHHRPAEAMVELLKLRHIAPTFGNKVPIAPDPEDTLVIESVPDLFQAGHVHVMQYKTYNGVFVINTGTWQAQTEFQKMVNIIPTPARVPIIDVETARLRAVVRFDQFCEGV
T5 sequence 2: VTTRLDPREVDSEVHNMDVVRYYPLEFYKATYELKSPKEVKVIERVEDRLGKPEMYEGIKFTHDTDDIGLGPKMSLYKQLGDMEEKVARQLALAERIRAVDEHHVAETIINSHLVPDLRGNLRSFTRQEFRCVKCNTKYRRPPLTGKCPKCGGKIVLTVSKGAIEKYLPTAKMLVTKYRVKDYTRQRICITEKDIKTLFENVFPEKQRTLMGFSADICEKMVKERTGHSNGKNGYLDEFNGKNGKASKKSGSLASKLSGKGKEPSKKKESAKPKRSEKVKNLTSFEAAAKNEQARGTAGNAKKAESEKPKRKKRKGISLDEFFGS
Put plainly: EMSA; 2 mM MgCl2; EMSA: 20 mM Tris-HCl pH 8.0, 10 mM KCl, 10 mM (NH4)2SO4, 1 mM DTT, 0.1 mg/ml BSA, 2 mM MgCl2, 40 C 10 min, 0.8% agarose 0.1x TAE; EM complex: 50 mM Tris-HCl pH. Conditions: protein: recombinant;recombinant; tags: ;His; copies: 1;1; label: 5' Cy5 on primer; primer-template, 5' overhang 13 nt on template. In general terms: A gel shift assay detects complexes by their altered migration in electrophoresis.

In data set [13] the target is T6, DP2CTD (Thermococcus kodakarensis, UniProt Q5JET0 1474-1798).
T6 sequence: T5 sequence 2
The data set is described as follows: EMSA; 2 mM MgCl2; readily detectable but weaker than DP1-DP2CTD; EMSA: 20 mM Tris-HCl pH 8.0, 10 mM KCl, 10 mM (NH4)2SO4, 1 mM DTT, 0.1 mg/ml BSA, 2 mM MgCl2, 40 C 10 min, 0.8% agarose 0.1x TAE; EM complex: 50 mM Tris-HCl pH. The following applies: protein: recombinant; tags: His; label: 5' Cy5 on primer; primer-template, 5' overhang 13 nt on template.

Sequence of DP1 (PolD small subunit);DP2 (PolD large subunit);TkoPCNA (PCNA1) (Q5JET0 1-963, one chain of several): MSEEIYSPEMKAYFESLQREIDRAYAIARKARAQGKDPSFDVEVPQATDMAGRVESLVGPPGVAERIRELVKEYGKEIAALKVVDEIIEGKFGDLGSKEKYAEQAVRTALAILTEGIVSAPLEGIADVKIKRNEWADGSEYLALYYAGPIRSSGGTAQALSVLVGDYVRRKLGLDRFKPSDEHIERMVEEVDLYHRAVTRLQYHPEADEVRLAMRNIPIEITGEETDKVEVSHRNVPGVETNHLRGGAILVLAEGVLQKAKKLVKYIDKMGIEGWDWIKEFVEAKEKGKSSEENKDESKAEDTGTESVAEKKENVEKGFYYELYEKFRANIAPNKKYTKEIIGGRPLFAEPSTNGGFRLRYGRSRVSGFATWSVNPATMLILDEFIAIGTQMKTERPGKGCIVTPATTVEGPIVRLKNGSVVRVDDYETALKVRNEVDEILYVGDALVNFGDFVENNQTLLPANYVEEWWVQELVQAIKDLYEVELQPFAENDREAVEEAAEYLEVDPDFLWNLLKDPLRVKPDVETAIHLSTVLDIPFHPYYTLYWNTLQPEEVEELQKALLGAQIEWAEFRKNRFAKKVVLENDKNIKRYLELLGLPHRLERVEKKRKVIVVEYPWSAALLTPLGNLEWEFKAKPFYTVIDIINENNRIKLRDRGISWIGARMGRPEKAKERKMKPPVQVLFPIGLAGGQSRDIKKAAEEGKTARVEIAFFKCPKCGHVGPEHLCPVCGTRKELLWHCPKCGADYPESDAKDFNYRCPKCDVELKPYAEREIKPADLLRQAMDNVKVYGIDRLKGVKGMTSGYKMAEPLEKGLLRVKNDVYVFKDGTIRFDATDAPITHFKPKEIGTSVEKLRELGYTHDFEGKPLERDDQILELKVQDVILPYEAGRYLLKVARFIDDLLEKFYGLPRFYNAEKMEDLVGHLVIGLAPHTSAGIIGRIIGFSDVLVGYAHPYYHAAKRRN

As for “PolDΔPIP: PolD with DP2(Δ1314-1324) DP1:K326A; DP1:K328A; DP2:K432A; DP2:R434A; DP2:R781A”, the response in data set [1] (parent: est. 700) amounted to 150 RU.
As to “Thermococcus kodakarensis DNA polymerase D (PolD), wild type, DP1-DP2 heterodimer DP1:K326A; DP1:K328A; DP2:K432A; DP2:R434A; DP2:R781A”, the response in data set [1] (parent: est. 1050) was 450 RU.

B1: Thermococcus kodakarensis proliferating cell nuclear antigen PCNA1 (TkoPCNA), homotrimer (natural protein)
chain: MPFEVVFDGAKEFADLIATASNLIDEAAFKFTEEGISMRAMDPSRVVLIDLNLPESIFSKYEVEEPETIGINMDQFKKILKRGKAKDTLILRKGDENFLEITFEGTAKRTFRLPLIDVEELELELPELPFTAKVVLLGEVLKEGIKDASLVSDAIKFIAKENEFTMKAEGETNEVEIRLTLEDEGLLDLEVEEETKSAYGIRYLSDMVKGIGKADEVILRFGNEMPLQMEYMIRDEGRLTFLLAPRVEE
notes: source: purified as described previously [23]
As usually defined, the stoichiometry N is the number of molecules, sites or subunits per partner or assembly. Broadly, the Kd is the free concentration of one partner at which half of the binding sites on the other are occupied at equilibrium, for simple one-to-one binding. The low end stands for tighter binding, the high end for weaker binding. By koff is commonly meant a measure of how fast the partners let go of each other. For B1, in data set [2], the “stoichiometry N” value came out at 3. Besides, the Kd in [3] worked out at 1.3 µM; in [4], 4.5 µM; in data set [5], 12 µM; in [6], 0.48 µM. Further, the koff in [7] is 0.006 s⁻¹; in data set [8], 0.0087 s⁻¹; in data set [9] it was 0.016 s⁻¹; in [10], 0.0048 s⁻¹.

B2: primed DNA (30/45) (dsDNA)
DNA 1: CGAACTGCCTGGAATCCTGACGACATGTAG
DNA 2: TGAGGTGATCGTTCGCTACATGTCGTCAGGATTCCAGGCAGTTCG
modifications: four successive phosphorothioates near the 3' end of both strands
Regarding B2, the binding result in [11] is “binds”.

B3: primed DNA Cy5-pri32/temp45 (dsDNA)
DNA 1: CGAACTGCCTGGAATCCTGACGACATGTAGCG
DNA 2: B2 DNA 2
For the molecule B3, the binding result in [12] and in data set [13] was “binds” throughout.

(Values after article PMC7594292, “Two conformations of DNA polymerase D-PCNA-DNA, an archaeal replisome complex, revealed by cryo-electron microscopy” (BMC Biology, 2020).)
